US20240228986A1, “ENGINEERED CELLS, ENZYMES, AND METHODS FOR PRODUCING CANNABINOIDS” (priority 2021, published 2024)

How the values were obtained:
Type in all cases: cell-based, Yarrowia
[1] = system: hexanoic acid; experiment: GPS-PKC-MPT fusions, hexanoic acid feed in vivo assay (Example 13); conditions: hexanoic acid 2.5 mM plus 5 mM after 24 h, 48 h quench; strain SB-00311 + pCL-SE-0274; average of 44 or 34 transformants
Experimental: Strain SB-00311 (HCS2, PKS1.1 and PKC1.1) was co-transformed with 1) a construct (pCL-SE-0274) for expression of HMGR and GPS1.1 and 2) a construct (pCL-SE-0406) for expression of a fusion protein that contains, from N- to C-terminus, GPS1.1 and MPT4 linked using the F11 linker sequence or a construct (pCL-SE-0474) for expression of a fusion protein that contains, from N- to C-terminus, GPS1.1, PKC1.1 and MPT4, each linked using the F11 linker sequence.
Transformants were assessed for CBGA production from hexanoic acid. Assay cultures consisted of YNBD+CAA media with 2.5 mM hexanoic acid. After 24 h, an additional 5 mM hexanoic acid was added to each assay culture. Cultures were quenched after 48 h total growth.
Overnight YPD (10 g/L yeast extract, 20 g/L peptone, 2% dextrose) cultures were inoculated from glycerol stocks of the appropriate strain and grown at 30° C. with 250 rpm shaking. Once cultures had reached an OD600 of 4-6, cultures were centrifuged at 500×g for 5 min, supernatants were discarded, and cell pellets were resuspended in equal volume of water. Resuspended cells were centrifuged at 500×g for 5 min, supernatants were discarded, and cells were resuspended in a volume (75 μL×OD×Vculture) of transformation cocktail (45% PEG-400, 0.1 M LiAc, 0.1 M DTT, and 25 ug/100 μL SS Salmon Sperm DNA). For each transformation, >1 μg of plasmid DNA was added to 55 μL cells/transformation cocktail and vortexed for 2 s. Transformations were incubated at 39° C. for 1 h with 250 rpm shaking. Transformations were resuspended in 750 μL YPD with 1 M sorbitol and recovered at 30° C. overnight with 250 rpm shaking. […] Precipitates were pelleted by centrifuging at 4600×g for 10 min and then 200 μL was transferred to fresh plates, sealed, and analyzed via HPLC.
All samples were quenched with equal volume of EtOH containing 0.2 mg/mL internal standard (3,5-Diisopropyl-2-hydroxybenzoic acid CAS #2215-21-6) centrifuged, and clarified solutions were analyzed by HPLC-MS […]

[2] = system: olivetolic acid; experiment: Fusions of different GPSs with MPT4, in vivo assay (Example 7); conditions: 1 mM olivetolic acid, 72 h quench
Experimental: (§1) As described below, plasmids pCL-SE-0337, 0406, 0452 and 0453 were transformed into strain sCL-SE-0128. Multiple colonies per transformation were precultured for 24 h in YNB containing glycerol (2%), casamino acids (0.5%), and MES (100 mM pH 6.5). Pre-culture was used to inoculate assay medium comprised of YNB containing glycerol (2%), casamino acids (0.5%), MES (100 mM pH 6.5), and olivetolic acid (1 mM). Cultures were quenched after 72 h total growth and assayed for CBGA and F-CBGA. Averages and standard deviations were calculated from replicates.
However, sCL-SE-0128 expresses HMGR and GPS1.1 to increase intracellular GPP levels for prenylation of OA to CBGA. The plasmids that were transformed contain a gene expressing a fusion between two different GPSs and a prenyl-transferase. The same linker is used for all constructs. […] Additionally, as illustrated by GPS2 (pCL-SE-0453), certain GPS-MPT combinations result in very high CBGA/ FCBGA ratios.
(§2) Overnight YPD (10 g/L yeast extract, 20 g/L peptone, 2% dextrose) cultures were inoculated from glycerol stocks of the appropriate strain and grown at 30° C. with 250 rpm shaking. Once cultures had reached an OD600 of 4-6, cultures were centrifuged at 500×g for 5 min, supernatants were discarded, and cell pellets were resuspended in equal volume of water. Resuspended cells were centrifuged at 500×g for 5 min, supernatants were discarded, and cells were resuspended in a volume (75 μL×OD×Vculture) of transformation cocktail (45% PEG-400, 0.1 M LiAc, 0.1 M DTT, and 25 ug/100 μL SS Salmon Sperm DNA). For each transformation, >1 μg of plasmid DNA was added to 55 μL cells/transformation cocktail and vortexed for 2 s. Transformations were incubated at 39° C. for 1 h with 250 rpm shaking. Transformations were resuspended in 750 μL YPD with 1 M sorbitol and recovered at 30° C. overnight with 250 rpm shaking. The next day, transformations were centrifuged at 500×g for 5 min, supernatants were discarded, and cell pellets were resuspended in 750 YPD. Resuspended transformations were plated on YPD with appropriate selection or YNBD (6.71 g/L yeast nitrogen base+nitrogen, 0.5% casamino acids, 2% dextrose) agar plates and grown at 30° C. for 2 days. Individual colonies were patched onto YPD plates with appropriate selection or YNBD plates and grown at 30° C. overnight. Patches were used to inoculate 0.5 mL YPD with appropriate selection or YNBD precultures in 96 w blocks and grown at 30° C. for 24-48 h with 1000 rpm shaking. For assays, 0.5 mL YPD with appropriate selection or YNBD cultures containing substrate were inoculated with 2 μL from precultures and grown at 30° C. for 2-4 days with 1000 rpm shaking with 2% glucose added every 24 h. Assay cultures were quenched by addition of 0.5 mL ethanol with 0.2% formic acid and 0.5 mg/mL pentyl-benzoic acid. Precipitates were pelleted by centrifuging at 4600×g for 10 min and then 200 μL was transferred to fresh plates, sealed, and analyzed via HPLC.
(§3) All samples were quenched with equal volume of EtOH containing 0.2 mg/mL internal standard (3,5-Diisopropyl-2-hydroxybenzoic acid CAS #2215-21-6) centrifuged, and clarified solutions were analyzed by HPLC-MS
(§4) • Column: 2.1×50 mm COSMOCORE PBr (Nacalai USA, Inc.) • Mobile Phase: A; 0.1% formic acid in water, B; 0.1% formic acid in acetonitrile • Flow: 0.45 mL/min • Temp: % 50 Celsius • Gradient: 20%B at 0 min, 70%B at 2.3 min, 89% B at 4.2 min, 20% B at 4.3 min, 20%B at 6 min

[3] = system: olivetolic acid; experiment: MPT fusions with GPS1.1 vs unfused MPTs, OA feed (Example 8, Table 9); conditions: 2 mM olivetolic acid, 48 h quench
In short: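 Yeast strain sCL-SE-0128 carrying MPT or GPS1.1–MPT fusion plasmids, precultured 48 h in YNB/2% glucose/0.5% casamino acids/100 mM MES pH 6.5. Assay medium was the same plus 2 mM olivetolic acid, 30 °C. Cultures were ethanol-quenched at 48 h total growth, and CBGA and FCBGA were measured by HPLC-MS with internal standard; values are replicate means ± SD.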

[4] = system: olivetolic acid; experiment: Linkers for GPS1.1-MPT4 fusions, in vivo assay (Example 6); conditions: 1 mM olivetolic acid, 72 h quench
Experimental: as §1, with “described in detail” for “described”, “pCL-SE-0380 (MPT4), pCL-SE-0406, pCL-SE-0435,” for “pCL-SE-0337, 0406, 0452”, “pCL-SE-0437” for “0453”, “Four separate” for “Multiple”, “by mixing with equal volume of EtOH. Enzymes produced” for “and assayed for”, “FCBGA.” for “F-CBGA.”
However, sCL-SE-0128 expresses HMGR and GPS1.1 to increase intracellular GPP levels for prenylation of OA to CBGA. The plasmids that were transformed contain either a gene expressing a prenyl-transferase (pCL-SE-0380 (MPT4)) or a gene expressing a fusion between GPS1.1 and a prenyl-transferase with different linker sequences.
as §2, §3, §4

[5] = 2% glycerol, strain sCL-SE-0128

B1: GPS1.1-F11-MPT4: fusion of GPS1.1 and MPT4 via F11 linker, SEQ ID NO: 16 (protein)
chain: MSKAKFESVFPRISEELVQLLRDEGLPQDAVQWFSDSLQYNCVGGKLNRGLSVVDTYQLLTGKKELDDEEYYRLALLGWLIELLQAFWLVSDDIMDESKTRRGQPCWYLKPKVGMIAIWDAFMLESGIYILLKKHFRQEKYYIDLVELFHDISFKTELGQLVDLLTAPEDEVDLNRFSLDKHSFIVRYKTAYYSFYLPVVLAMYVAGITNPKDLQQAMDVLIPLGEYFQVQDDYLDNFGDPEFIGKIGTDIQDNKCSWLVNKALQKATPEQRQILEDNYGVKDKSKELVIKKLYDDMKIEQDYLDYEEEVVGDIKKKIEQVDESRGFKKEVLNAFLAKIYKRQKGGAEAAAKEAAAKAGGSGGGSGGGGSGGSGGGGSGGGGSMSDNSIATKILNFGHTCWKLQRPYVVKGMISIACGLFGRELFNNRHLFSWGLMWKAFFALVPILSFNFFAAIMNQIYDVDIDRINKPDLPLVSGEMSIETAWILSIIVALTGLIVTIKLKSAPLFVFIYIFGIFAGFAYSVPPIRWKQYPFTNFLITISSHVGLAFTSYSATTSALGLPFVWRPAFSFIIAFMTVMGMTIAFAKDISDIEGDAKYGVSTVATKLGARNMTFVVSGVLLLNYLVSISIGIIWPQVFKSNIMILSHAILAFCLIFQTRELALANYASAPSRQFFEFIWLLYYAEYFVYVFI
modifications: GPS1.1-F11-MPT4, geranyl diphosphate synthase, membrane-bound prenyltransferase fusion protein
B1 showed a CBGA [1] of 55.9 ± 26.4 µM, a CBGA [2, 5] of 376 ± 41 µM and an FCBGA [2, 5] of 51 ± 5 µM. The CBGA/FCBGA ([2]; product ratio) was 7.4, the CBGA ([3]; 2% glucose, strain sCL-SE-0128) was 200 ± 3 µM and the FCBGA ([3]; 2% glucose, strain sCL-SE-0128) was 24 ± 1 µM. For the same molecule, the CBGA/FCBGA ([3]; product ratio) was 8.2, the CBGA [4, 5] was 393 ± 41 µM and the FCBGA [4, 5] was 60 ± 5 µM. For the same molecule, the CBGA/FCBGA ([4]; product ratio) was 6.6.
